Measured values taken from US11407819B2, “Compositions and use of a fibrinogen binding motif present in EFB and COA for therapeutics and vaccines against Staphylococcus aureus” (priority 2013, dated 2022).

Legend:
rEfb-O binding to Fg = molecular target: T1, rEfb-O binding to Fg (Homo sapiens, UniProt P02671+P02675+P02679); assay: Competition ELISA, peptide inhibition of rEfb-O binding to immobilized Fg; details: rEfb-O 5 nM; peptides 2 μM or increasing concentrations
T1 construct: full-length human Fibrinogen (diluted in PBS, Enzyme research); purchased Enzyme research; host or cells: Efb probe made in E. coli
T1 sequence (P02671 20-629 limits assumed): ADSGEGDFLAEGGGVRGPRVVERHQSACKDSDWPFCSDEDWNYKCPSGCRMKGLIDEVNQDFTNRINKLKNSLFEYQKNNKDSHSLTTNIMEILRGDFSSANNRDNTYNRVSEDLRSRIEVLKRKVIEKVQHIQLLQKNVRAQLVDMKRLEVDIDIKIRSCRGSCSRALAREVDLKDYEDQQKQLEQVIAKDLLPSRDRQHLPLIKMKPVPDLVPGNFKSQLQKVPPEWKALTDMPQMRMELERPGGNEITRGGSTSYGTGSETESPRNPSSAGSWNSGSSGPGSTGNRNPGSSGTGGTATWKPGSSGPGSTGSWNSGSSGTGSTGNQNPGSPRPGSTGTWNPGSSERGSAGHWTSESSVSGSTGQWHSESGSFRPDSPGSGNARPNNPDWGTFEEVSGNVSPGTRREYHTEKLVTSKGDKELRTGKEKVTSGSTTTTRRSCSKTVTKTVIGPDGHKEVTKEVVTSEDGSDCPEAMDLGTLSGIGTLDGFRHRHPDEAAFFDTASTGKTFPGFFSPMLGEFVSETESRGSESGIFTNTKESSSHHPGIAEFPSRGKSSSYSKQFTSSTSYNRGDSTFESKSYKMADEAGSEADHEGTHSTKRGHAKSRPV
T1 sequence (P02675 31-491): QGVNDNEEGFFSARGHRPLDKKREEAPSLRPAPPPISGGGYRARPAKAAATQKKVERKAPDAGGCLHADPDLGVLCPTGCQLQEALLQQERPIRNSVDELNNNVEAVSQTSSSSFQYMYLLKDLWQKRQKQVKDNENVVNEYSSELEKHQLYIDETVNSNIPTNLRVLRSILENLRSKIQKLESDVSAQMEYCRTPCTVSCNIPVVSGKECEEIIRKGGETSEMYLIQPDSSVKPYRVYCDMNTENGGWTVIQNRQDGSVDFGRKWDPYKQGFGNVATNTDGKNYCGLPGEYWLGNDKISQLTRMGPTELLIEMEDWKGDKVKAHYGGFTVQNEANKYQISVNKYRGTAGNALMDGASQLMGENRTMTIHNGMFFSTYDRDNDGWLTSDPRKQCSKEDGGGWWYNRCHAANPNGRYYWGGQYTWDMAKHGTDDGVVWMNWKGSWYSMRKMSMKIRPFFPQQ
T1 sequence (P02679 27-453): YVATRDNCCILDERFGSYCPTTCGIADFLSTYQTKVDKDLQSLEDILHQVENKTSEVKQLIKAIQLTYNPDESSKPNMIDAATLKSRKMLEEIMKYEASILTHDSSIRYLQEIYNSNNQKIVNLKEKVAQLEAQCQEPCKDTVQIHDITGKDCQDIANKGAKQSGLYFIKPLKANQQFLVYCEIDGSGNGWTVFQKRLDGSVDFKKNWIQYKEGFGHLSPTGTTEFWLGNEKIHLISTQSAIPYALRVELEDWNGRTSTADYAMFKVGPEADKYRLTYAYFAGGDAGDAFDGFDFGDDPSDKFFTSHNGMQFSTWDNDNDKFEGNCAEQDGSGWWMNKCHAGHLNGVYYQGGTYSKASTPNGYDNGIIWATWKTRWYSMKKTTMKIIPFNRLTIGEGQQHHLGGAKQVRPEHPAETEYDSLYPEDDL
Procedure: FIG. 10A is a table of the Efb-O variant peptides were synthesized where each residue in the sequence is individually replaced with Ala (or Ser when the native a.a. is Ala). FIG. 10B is a plot of the Efb-O variant peptides inhibit rEfb-O (5 nM) binding to immobilized Fg in solid phase assay. Wells were coated with 0.25 μg/well Fg. Peptides (2 μM) were mixed with rEfb-O proteins (5 nM) and incubated in the Fg wells for 1 hour. FIG. 10C is a plot showing selected peptides inhibit rEfb-O binding to immobilized Fg. Increasing concentrations of Efb peptides were incubated with 5 nM rEfb-O in Fg-coated microtiter wells. To identify the residues in Efb-O that are important for Fg binding an Alanine scanning approach was used. A panel of Efb-O variant peptides were synthesized where each residue in the sequence is individually replaced with Ala (or Ser when the native a.a. is Ala; FIG. 10A). The individual peptides are then examined for their ability to compete with the binding of rEfb-O (5 nM) to immobilized Fg. […]
In the case of peptide inhibition assay, various concentration of Efb or Coa peptides were mixed with a fixed concentration of Coa-GST or Efb-GST fusion proteins (5-10 nM) in TBS and the bound GST fusion proteins were detected through incubation with HRP-conjugated rabbit anti-GST polyclonal antibodies (5000× dilution). […]

rCoa binding to Fg = molecular target: T2, rCoa binding to Fg (Homo sapiens, UniProt P02671+P02675+P02679); assay: Competition ELISA, peptide inhibition of recombinant Coa binding to Fg; details: increasing concentrations of peptide; 4 nM GST-tagged Coa proteins
T2 construct: full-length human Fibrinogen (diluted in PBS, Enzyme research); purchased Enzyme research; host or cells: Coa probe made in E. coli BL21
T2 sequence (P02671 20-629 limits assumed): T1 sequence (P02671 20-629 limits assumed)
T2 sequence (P02675 31-491): T1 sequence (P02675 31-491)
T2 sequence (P02679 27-453): T1 sequence (P02679 27-453)
Source text: FIG. 9A illustrates a schematic presentation of recombinant Coa fragments generated in this study. Coa is depicted in its secreted form Coa (27-636) lacking the signal peptide (1-26). The N-terminus of Coa (Coa-N; Coa 27-310) constitutes D1D2 prothrombin binding domain. The C-terminus of Coa (Coa-C; Coa 311-636) includes the central region and the tandem-repeat region. The Coa-C further divides into two parts, the Coa-R is corresponding to the tandem-repeat region covering residue 506-636, and the Coa-F fragment covering residues 311-505. Recombinant protein Coa-R0 corresponds to the residues 474-506 residues. […] FIG. 9B illustrates an ELISA assays of GST-tagged Coa fragments binding to immobilized Fg. Open circle, Coa (Coa 27-636); open upright triangle, Coa-N(Coa 27-310); open inverted triangle, Coa-C(Coa 311-636); closed circle, Coa-R (Coa 506-636); closed diamond, Coa-F (Coa 311-505). […] FIG. 9D illustrates the effect of peptide Efb-O on inhibition of rCoa binding to Fg. Increasing concentration of Efb-O were incubated with 4 nM GST-tagged Coa proteins in Fg-coated microtiter wells. Control, BSA.
[…] All proteins were diluted in TBS containing 1% BSA and 0.05% TWEEN® 20 and the ELISA assays were carried out at room temperature.

“sEfb-O: synthetic peptide mimicking the high affinity Fg-binding motif in Efb (Efb 68-98) (KYIKFKHDYNILEFNDGTFEYGARPQFN)” was tested. Which “inhibition of rEfb-O binding to immobilized Fg” value (rEfb-O binding to Fg) did it give?
The value was “efficiently blocked”.

What about the “inhibition of recombinant Coa binding to Fg” value (rCoa binding to Fg) of the same substance?
The value was “effectively inhibited recombinant Coa binding to Fg”.
